Reference: article PMC10855774, “Role of Spexin in White Adipose Tissue Thermogenesis under Basal and Cold-Stimulated Conditions” (International Journal of Molecular Sciences, 2024)

Assays:
ucp1 [1] = assay: ucp1 mRNA expression in AT depots (qRT-PCR); assay type: in vivo, mice
Description: (§1) Normal adult male C57BL/6 mice (four months of age) were kept in a temperature-controlled environment (20–22 °C and a fixed 12 h light/12 h dark cycle; lights on at 07:00 h) and fed ad libitum with Purina commercial rat/mouse chow (Ganave, Buenos Aires, Argentina, L0723/1). Mice were injected with SPX or PBS (29 µg/kg/day, Tocris, Bristol, UK) for ten days (the SPX and CTR groups, respectively). On the third day of the protocol, each group was subdivided into two other groups: one exposed to cold (4 °C, CTR-C and SPX-C, n = 12 mice for each group) and another one housed at RT (CTR and SPX, n = 15 mice for each group) (Figure 1). Food intake and body weight were measured every day. On the experimental day (day 10), the mice were euthanized under non-fasting conditions (08:00 to 09:00 h), and their trunk blood was collected; plasma samples were then frozen (–80 °C) until the metabolite measurement. Inguinal AT (IAT, subcutaneous depot), epididymal AT (EAT, visceral depot), and brown AT (BAT, subcutaneous depot) were aseptically dissected and weighed. These depots were kept at –80 °C for further procedures. Animals were euthanized according to protocols for animal use, in agreement with the NIH guidelines for the care and use of experimental animals. All experiments were approved by our Institutional Animal Care Committee (Approval code: 6NE-2023).
Total RNA was isolated from cells by the Trizol extraction method (Invitrogen, Life Technology, Waltham, MA, USA) and reverse-transcribed using random primers (250 ng) and RevertAid Reverse Transcriptase (200 U/µL, Thermo Scientific, Waltham, MA, USA). The cDNA (2 μL) was amplified with HOT FIRE Pol EvaGreenqPCR Mix Plus (Solis BioDyne, Tartu, Estonia) containing 0.5 μM of each specific primer, using a Rotor-Gene Q (Qiagen, Hilden, Germany). PCR efficiency was near 1. The expression levels were analyzed for β-actin (βactin, […] gene), Uncoupling Protein 1 (ucp1), proliferator-activated receptor gamma coactivator-1 alpha (pgc1α), cytochrome-c oxidase subunit 8b (cox8b), galanin receptors 2 and 3 (galr2 and galr3, respectively), and Spexin (spx). The designed primers are shown in alphabetical order in Table 1. The relative changes in the expression level of each gene (ΔΔCt) were calculated by the ΔCt method.

[2] = tested on: beige precursors (PDGFRα+; EBF2+); assay: Beige precursors (PDGFRα+; EBF2+) in the SVF by flow cytometry; assay type: in vivo, mice; conditions: SPX for 3 days prior to cold exposure; n = 4, t-test
Description: Fresh EAT pads were dissected, weighed, and digested with collagenase, as previously reported. Briefly, fat tissue was minced and digested using 1 mg/mL of the collagenase solution in DMEM (at 37 °C for 40–60 min). After centrifugation (1000 rpm for 15 min), the SVF pellets were filtered (in a 50-µm-mesh nylon cloth) and washed with DMEM (x3). SVF cells were then resuspended in DMEM supplemented with 10% (v/v) FBS, HEPES ([…]), 100 IU/mL of penicillin, and 100 µg/mL of streptomycin (basal medium) and reserved for the flow cytometry protocol.
The SVF was prepared as reported above and counted and filtered through a 70-μM cell strainer. To block unspecific binding, the cells were resuspended in 10% inactivated FBS in FACS buffer (1% BSA in PBS) for 10 min. Then, the cells were incubated with the surface antibody anti-Pdgfrα (CD140a)-PE/Cy7 (1:200, BioLegend, San Diego, CA, USA) and washed twice with FACS buffer, followed by centrifugation (300× g, 5 min). Fixation was performed with 2% paraformaldehyde in PBS for 20 min at room temperature. After washing, the cells were subjected to permeabilization with 0.1 % Triton X100 in PBS for 15 min at room temperature. […] The samples were analyzed on a FACS Calibur flow cytometer (BD bioscience, Franklin Lakes, NJ, USA). […]

3T3-L1 adipocytes = conditions: in vitro; cited from earlier work
Text: (§2) Beige adipocytes may be generated through two different mechanisms: adipogenesis, de novo, from precursor stem cells, and the transdifferentiation process, which involves the conversion/reprogramming of white adipocytes. Regarding the former, different studies have shown the presence of different adipocyte precursors that have different thermogenic capacities when differentiated in vitro [22]. Other studies have observed that PDGFRα+ cells are bipotential precursors, being able to differentiate into either white or beige adipocytes depending on the stimulus. Then, only PDGFRα+ and EBF2+ cell ...

preadipocytes = conditions: cited from earlier work
Text: as §2

ucp1 [3] = assay: UCP1 immunohistochemistry of EAT and IAT; assay type: in vivo, mice; conditions: SPX groups vs. CTR groups; representative of three experiments
Description: as §1, with “6NE-2023). […]” for “6NE-2023).”

β3-adrenergic receptors = conditions: obese female mice treated with SPX for 50 days; cited from earlier work
Text: (§3) Little is known about the role of SPX in thermogenesis. […] In the liver, results are contradictory. While one study has shown that SPX decreases pgc1α expression both in vivo and in vitro [26], another study has shown the opposite effect. Thus, the aim of this study was to evaluate the role of SPX during WAT thermogenesis under both room temperature (RT) and cold-stimul ...

ucp1, pgc1α, and prdm16 = conditions: obese female mice treated with SPX for 50 days; cited from earlier work
Text: as §3

[4] = cold-stimulated conditions (7 days 4 °C), SPX-C vs. CTR-C p < 0.0001

B1: Spexin (peptide, UniProt Q9BT56 27-116, looked up)
Spexin: APQRLLERRNWTPQAMLYLKGAQGRRFISDQSRRKDLSDRPLPERRSPNPQLLTIPEAATILLASLQKSPEDEEKNFDQTRFLEDSLLNW
modifications: Spexin
notes: novel adipokine, a peptide of 14 amino acids of the galanin family; purchased from Tocris
ucp1 mRNA expression in BAT (ucp1 [1]; RT and cold, C p < 0.001, Supplementary Figure S2a): increased under cold exposure despite the SPX treatment | ucp1 mRNA expression in IAT and EAT (ucp1 [1]; RT, SPX vs. CTR): SPX inhibition was also significant, but only when a t-test was performed | ucp1 mRNA expression in EAT (ucp1 [1]; [4]): ucp1 inhibition | ucp1 mRNA expression in IAT (ucp1 [1]; [4]): ucp1 inhibition | abundance (%) of beige precursors in the SVF of EAT [2]: no changes were observed in either of the two AT depots studied | abundance (%) of beige precursors in the SVF of IAT [2]: no changes were observed in either of the two AT depots studied | terminal differentiation of white 3T3-L1 adipocytes (3T3-L1 adipocytes): inhibits | viability or proliferation of preadipocytes (preadipocytes): does not affect | UCP1 expression by immunohistochemistry, EAT and IAT (ucp1 [3]): lower than in the CTR groups | immunodetection of β3-adrenergic receptors in gonadal WAT (β3-adrenergic receptors): lower immunodetection | ucp1, pgc1α, and prdm16 expressions in BAT (ucp1, pgc1α, and prdm16): decreased
